The nanobody polyreactivity screen of Harvey et al. (2022)

Assay: yeast display, Sf9 membrane polyspecificity reagent, FACS + sequencing; frameworks hold sequencing errors
How it was run: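 Synthetic nanobody libraries on Saccharomyces cerevisiae BJ5465 were galactose-induced for 36–48 hours, stained 1 hour at 4 °C with 10% biotinylated, detergent-solubilized Sf9 membrane reagent and enriched on streptavidin microbeads. FACS then separated cells into low and high (top ~1%) gates by anti-HA (expression) and streptavidin (reagent binding) fluorescence. Genes were colony-PCR amplified, MiSeq 2 × 250 sequenced and CDR-length filtered. A clone's polyreactivity label is that of its gate of origin.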

| Sequence | polyreactivity (PSR sort gate) |
| --- | --- |
| QVQLVESGGGLVQAGGSLRLSCAASGRTFDYNAMGWYRQAPGKERELVADISNGGTTSYADSVKGRFTISRDNAKNTVYLQMNSLKPEDTAVYYCATLYDWSSFANSYWYFGWEEDYWGQGTQVTVSS | low polyreactivity |
| QVQLVESGGGLVQAGGSLRLSCAASGRTFDYNAMGWYRQAPGKERELVARISNGDSTYADSVKGRFTISRDNAKNTVYLQMNSLKPEDTAVYYCAARQEPGWYPDVWWEYDYWGEGTQVTVSS | low polyreactivity |
| QVQLVESGGGLVQAGGSLRLSCAASGRTFDYNTMGWYRPAPGKDRELVAAISASGGSTYYADSVKGRFTISRDNAKNTVYLQMNSLKPEDTAVYYCNTYAGVEYYHWGQGTQVTVSS | low polyreactivity |
| QVQLVESGGGLVQAGGSLRLSCAASGRTFDYYAMGWYRQAPGKERELVAAISSTGTSTYYGDSVKGRFTISRDNAKNTVYLQMNRLKPVDTAVYYCSAVSWYEYDYWGQGTQVSVSS | high polyreactivity |
| QVQLVESGGGLVQAGGSLRLSCAASGRTFDYYVMGWYRQAPGKERELVAAISTSGGRTYYADSVKGRFTISRDNAKNTVYLQMNSLKPEDTAVYYCAAYWGGWSFRYLYDYWGQGTQVTVSS | high polyreactivity |
| QVQLVESGGGLVQAGGSLRLSCAASGRTFEANAMGWYRQAPGKERELVASISRSGGNTYYADSVKGRFTISRDNAKNTGYLQMNSLKPEDTAVYYCAARFRVGQRRFNYWGQGTQVTVSS | high polyreactivity |
| QVQLVESGGGLVQAGGSLRLSCAASGRTFEFYTMGWYRQAPGKERELVAAINWSGSRTYYADSVKGRFTISRDNAKNTVYLQMNSLKPEDTAVYYCNAGEKRGLISIQGYDYWGQGTQVTVSS | high polyreactivity |
| QVQLVESGGGLVQAGGSLRLSCAASGRTFEGNAMGWYRQAPGKERELDAAITSGGRTNYADSVKGRFTISRDNAKNTVYLQMNSLKPEDTAVYYCAVETRDRSTSFPGQAYDYWGQGSQVTVSS | low polyreactivity |
| QVQLVESGGGLVQAGGSLRLSCAASGRTFEGNAMGWYRQAPGKERELVAAINSSGGSTYYADSVKGRFTISRDNAKNTVYLQMNSLKPEDTAVYYCNAVAGPQGVKLYDYWGQGTQVTVSS | low polyreactivity |
| QVQLVESGGGLVQAGGSLRLSCAASGRTFEGNAMGWYRQAPGKERELVAAITSGGRTNYADSVKGRFTISRDNAKNTVYLQMNSLKPEDTAVYYCAAGQVSVGTIAKYDYWGQGTQVTVSS | low polyreactivity |
| QVQLVESGGGLVQAGGSLRLSCAASGRTFELNAMGWYRQAPGKERELVAAISWSGGSTYYADSVKGRFTISRDNAKNTVYLQMNSLKPEDTAVYYCAAQYQQGPFVKYYYWGQGTQVTVSS | high polyreactivity |
| QVQLVESGGGLVQAGGSLRLSCAASGRTFEQYAMGWYRQAPGKERELVAAISGSGGSTFYADSVKGRFTISRDNAKNTVYLQMNSLKPEDTAVYYCAVDAYPPFFYFTSVWFSYDYWGQGTQVTVSS | low polyreactivity |
| QVQLVESGGGLVQAGGSLRLSCAASGRTFESYAMGWYRPAPGKERELVAAITWSGGDTYYADSVKGRFTISRDNAKNTVYLQMNSLKPEDTAVYYCAKEQGLYSVSPYDYWGQGTQVTVSS | low polyreactivity |
| QVQLVESGGGLVQAGGSLRLSCAASGRTFESYAMGWYRQAAGKERELVAAIRSRGGSTNYADSVKGRFTISRDNAKNTVYLQMNSLKPEDTAVYYCNKDGTWVARAVTYADFDYWGQGTQVTVSS | low polyreactivity |
| QVQLVESGGGLVQAGGSLRLSCAASGRTFETNAMGWYRQAPGKERELVASINWSGGSTYYADSVKGRFTISRDNAKNTVYLQMNILKPEDTAVYYCAADHSYWDWWSYYYWGQGTQVTVSS | low polyreactivity |
| QVQLVESGGGLVQAGGSLRLSCAASGRTFEYYAMGWYRQAPGKERELVAAIDSGGSTNYADSVKGRFTISRDNAKNTVYLQMNSLKPEDTAVYYCATEVDQNYNYDYWGQCTQVTVSS | low polyreactivity |
| QVQLVESGGGLVQAGGSLRLSCAASGRTFEYYAMGWYRQAPGKERELVAAIDSGGSTNYADSVKGRFTISRDNAKNTVYLQMNSLKPEDTAVYYCATEVDQNYNYDYWGQGTQVTVSS | low polyreactivity |
| QVQLVESGGGLVQAGGSLRLSCAASGRTFFCYAMGWYRQAPGKERELVAAITYRGGGTYYADSVKGRFTISRDNAKNTVNLQMNSLKPEDTAVYYCAAEYWVGVYLYDYWGQGTQVTVSS | high polyreactivity |
| QVQLVESGGGLVQAGGSLRLSCAASGRTFFDYAMGWYRQAPGKERELVAAITSSGSSTYYADSVKGRFTISRDNAKNTVYLQMNSLKPEDTAVYYCAAGASANKKITSYDYWGQGTQVTVSS | low polyreactivity |
| QVQLVESGGGLVQAGGSLRLSCAASGRTFFFNAMGWYRQAPGIERELVATISWNGGDTYYADSVKGRFTISRDNAKNTVYLQMNSLKPEDTAVYDCNARVLWGQGTQVTVSS | high polyreactivity |
| QVQLVESGGGLVQAGGSLRLSCAASGRTFFGYAMGWYRQAPGKERELVAAISRGGGRTYYADSVKGRFTISRDNAKNTVYLQMNSLKPEDTAVYYCNAVTFSFYLYDWGQGTQVTVSS | high polyreactivity |
| QVQLVESGGGLVQAGGSLRLSCAASGRTFFGYAMGWYRQAPGKERELVAAISSRGDSTYYADSVKGRFTISRDNAKNTVYLQMNSLKPEDTAVYYCNAPVYTAAGYRYGTVRYGYWGQGTQVTVSS | low polyreactivity |

| Sequence | polyreactivity (PSR sort gate) |
| --- | --- |
| QVQLVESGGGLVQAGGSLRLSCAASGRTFFGYAMGWYRQATGKERELVAAINWGGASTYYADSVKGRFTISRDNAKNTVYLQMNSLKPEDTAVYYCAADSVPSRPTYGRYDYWGQGTQVTVSS | low polyreactivity |
| QVQLVESGGGLVQAGGSLRLSCAASGRTFFHYAMGWYRQAPGKERELVAGISSGGRTKYADSVKGRFTISRDNAKNTVYLQMNSLKPEDTAVYYCAASYIVWLTRGAPRKRFDYWGQGTQVTVSS | high polyreactivity |
| QVQLVESGGGLVQAGGSLRLSCAASGRTFFINTMGWYRQAPGKEREFVAAITWSAGRTYYADSVKGRFTISRDNAKNTVYLQMNSLKPEDTAVYYCAAALHGHTFPFYYWGQGTLVTVSS | low polyreactivity |
| QVQLVESGGGLVQAGGSLRLSCAASGRTFFKYVMGWYRQAPGKERELVAAISSGGSTNYADSVKGRFTISRDNAKNTVYLQMNSLKPEDTAVYYCATYDPARSTQGYDYWGQGTQVTVSS | high polyreactivity |
| QVQLVESGGGLVQAGGSLRLSCAASGRTFFKYVMGWYRQAPGKERELVAAISYRSGSTYYADSVKGRFTISRDNAKNTVYLQMNSLKPEDTAVYYCAIEPPPVKGDYWGQGTQVTVSS | low polyreactivity |
| QVQLVESGGGLVQAGGSLRLSCAASGRTFFNYGMGWYRQAPGKEREFVARISFSGGSTYYADSVKGRFTISRDNAKNTVYLQMNSVKPEDTAVYYCNARVFPFAYRYGYWGQGTQVTVSS | high polyreactivity |
| QVQLVESGGGLVQAGGSLRLSCAASGRTFFRNVMGWYRQAPGKERELVAGITWTGGTTYYADSVKGRFTISRDNAKNTVYLQMNSLKPEDTAVYYCATRNYAVVPSVRREGYYWGQGTQVTVSS | low polyreactivity |
| QVQLVESGGGLVQAGGSLRLSCAASGRTFFRYVMGWYRQAPGKERELVAAISRSGGSTYYADSVKGRFTISRDNAKITVYLQMNSLKPEDTAVYYCNTVARSTVVPTEFDYWGQGTQVTVSS | high polyreactivity |
| QVQLVESGGGLVQAGGSLRLSCAASGRTFFSYAMGWYRQAPGKERELVAAITYSGGRTYYADSVKGRFTISRDNAKNTVYLQMNSLKPVDTAVYYCAATHYREKMDYWGQGTQVTVSS | low polyreactivity |
| QVQLVESGGGLVQAGGSLRLSCAASGRTFFTYAMGWYRQAPGKERELVAAITGSGGSTSYADSVKGRFTISRDNAKNTVYLQMNSLKPEDTAVYYCAADWQELEYDYWGQGTQVTVSS | low polyreactivity |
| QVQLVESGGGLVQAGGSLRLSCAASGRTFFVYTMGWYRQAPGKERELVAAITSDTSTTYADSVKGRFTISRDNAKNTVYLQMISLKPEDTAVYYCAAEGYVGYYDYDYWGQGTQVTVSS | low polyreactivity |
| QVQLVESGGGLVQAGGSLRLSCAASGRTFFWNAMGWYRQAPGTERELVAAITWSGGSTYYADSVKGRFTLSRDNAKNTVYLQMNSLKPEDTAVYYCAAVVSEYVWRYEYWGQGTQVTVSS | low polyreactivity |
| QVQLVESGGGLVQAGGSLRLSCAASGRTFFWYAMGWYRQAPGKERDLVAAIRGAGRTNYADSVKGRFTISRYNAKNTVYLQMNSLKPEDTAVYYCAAQHYPWRRYDYWGQGTQVTVSS | high polyreactivity |
| QVQLVESGGGLVQAGGSLRLSCAASGRTFFYNAMGWYRQAPGKERELVAAISSGGGSTYYADSVKGRFTISRDNAKNTVYLQMNSLKPEDTAVYYCAAASYRQPGYGYWGQGTQVTVSS | high polyreactivity |
| QVQLVESGGGLVQAGGSLRLSCAASGRTFGAYAMGWYRQAPGKERELVASISRSGGTTYYADSVKGRFTISRDNAKNTVYLQMNSLKPEDTAVYYCAAQYVRYGHYYWGQGTQVTVSS | high polyreactivity |
| QVQLVESGGGLVQAGGSLRLSCAASGRTFGAYTMGGYRQAPGKDRELVAAISSGTRTNYADSVKGRFTISRDNAKNTVYLQMNSLIPEDTAVYYCAATVLGHNRVYYWGQGTQVTVSS | low polyreactivity |
| QVQLVESGGGLVQAGGSLRLSCAASGRTFGAYTMRWYRQAPGTERELVAAINRSGGDTYYADSVKGRFTISRDTAKNTVYLQMNSLKPEDNAVYYCNAEPRYGTYDYWGQGTQVTVSS | low polyreactivity |
| QVQLVESGGGLVQAGGSLRLSCAASGRTFGDYAKGWYRQAPGKERELVAAISKSGGITYYADSVKGRFTISRDNAKNTVYLQMNSLKPEDTAVYYCAARRSGEGNYWGQGTQVTVSS | high polyreactivity |
| QVQLVESGGGLVQAGGSLRLSCAASGRTFGEYAMGWYRQAPGKERELVAAISSAGSTYYADSVKGRFTISRDNAKNTVYLQMNSMKPDDTAVYYCASSRKYGYGYWGQRTQVTVSS | high polyreactivity |
| QVQLVESGGGLVQAGGSLRLSCAASGRTFGEYVMGGYRQAPGKERELVASISRRGGSTYYADSVKGRFTLSRDNAKNTVYVLMNSQNPEDTAVYYCAKYRTQWSKNLYPYGFDYWGHGTQVTVSS | low polyreactivity |
| QVQLVESGGGLVQAGGSLRLSCAASGRTFGFNAMGWSRPAPGKERELVAVITRGGSTYADSVKGRFTISRDNAKNTVYLQMNSLKPEDTAVYYCAAYRYGFKTWMDYWGQGTQVTVSS | high polyreactivity |
